# Source: publication PMC8592984, “Tau activates microglia via the PQBP1-cGAS-STING pathway to promote brain inflammation” (Nature Communications, 2021)
# B1: human PQBP1(1–94) including WWD (domain or fragment, UniProt O60828 1-94, looked up)
# chain: MPLPVALQTRLAKRGILKHLEPEPEEEIIAEDYDDDPVDYEATRLEGLPPSWYKVFDPSCGLPYYWNADTDLVSWLSPHDPNSVVTKSAKKLRS
# notes: human PQBP1, residues 1-94, including the WW domain (WWD); Used in SPR and in NMR; also called WWD of PQBP1; PQBP1-WWD
# Columns and labels:
# Conditions in all cases: both partners purified
# [1] = target: T1, Tau(244–341) of Tau 410 (human, UniProt P10636-5 244-341); assay: NMR titration; 1H-15N HSQC of labelled tau fragments without and with PQBP1(1–94), molar ratio Tau:PQBP1(1–94) 1:5; 0.1–0.5 mM tau, 20 mM sodium phosphate pH 7.0, 20 mM NaCl, 1 mM dithiothreitol, 283 K
# T1 construct: human tau, splice form Tau 410, residues 244-341 (repeat region); numbers count on: Tau 410; Isotope-labelled (15N); also called the repeat region
# T1 sequence (P10636 other isoform, or with tags, fused parts or gaps): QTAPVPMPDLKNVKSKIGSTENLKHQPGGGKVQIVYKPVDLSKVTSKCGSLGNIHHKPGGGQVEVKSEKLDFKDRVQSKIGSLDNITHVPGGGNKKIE
# [2] = target: T2, human Tau 441 full-length protein (4R tau), SPR construct (human, UniProt P10636-8 1-441); assay: SPR; Tau proteins immobilised on CM5 sensor chips at 1200 RU; PQBP1 constructs loaded at multiple doses for 120 s; equilibrium response; BIAcore J, 25 °C; 10 mM Tris-HCl pH 8.5, 150 mM NaCl, 3 mM EDTA, 0.005% Tween-20
# T2 construct: source: E. coli Rosetta(DE3)pLysS, purified (Ni-NTA agarose); not shown: His-tag, N-terminal, kept
# T2 sequence (P10636 other isoform, or with tags, fused parts or gaps): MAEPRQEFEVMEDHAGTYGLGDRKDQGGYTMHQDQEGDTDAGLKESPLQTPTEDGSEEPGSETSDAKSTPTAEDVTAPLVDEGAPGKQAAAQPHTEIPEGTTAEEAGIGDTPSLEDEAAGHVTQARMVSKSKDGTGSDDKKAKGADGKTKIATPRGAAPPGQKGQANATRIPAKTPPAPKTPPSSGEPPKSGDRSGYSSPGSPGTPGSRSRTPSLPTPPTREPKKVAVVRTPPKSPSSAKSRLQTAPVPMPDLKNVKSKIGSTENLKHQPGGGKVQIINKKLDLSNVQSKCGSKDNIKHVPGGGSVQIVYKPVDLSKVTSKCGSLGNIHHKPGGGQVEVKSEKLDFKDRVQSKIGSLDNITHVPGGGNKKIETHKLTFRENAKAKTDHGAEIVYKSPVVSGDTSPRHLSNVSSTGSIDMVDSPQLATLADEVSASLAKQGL
# [3] = target: T3, human Tau 410 full-length protein (3R tau), SPR construct (human, UniProt P10636-5 1-410); assay: as above
# T3 construct: human tau, splice form Tau 410 (a representative 3R tau), 410 residues; numbers count on: Tau 410; source: E. coli Rosetta(DE3)pLysS, purified (Ni-NTA agarose); not shown: His-tag, N-terminal, kept
# T3 sequence (P10636 other isoform, or with tags, fused parts or gaps): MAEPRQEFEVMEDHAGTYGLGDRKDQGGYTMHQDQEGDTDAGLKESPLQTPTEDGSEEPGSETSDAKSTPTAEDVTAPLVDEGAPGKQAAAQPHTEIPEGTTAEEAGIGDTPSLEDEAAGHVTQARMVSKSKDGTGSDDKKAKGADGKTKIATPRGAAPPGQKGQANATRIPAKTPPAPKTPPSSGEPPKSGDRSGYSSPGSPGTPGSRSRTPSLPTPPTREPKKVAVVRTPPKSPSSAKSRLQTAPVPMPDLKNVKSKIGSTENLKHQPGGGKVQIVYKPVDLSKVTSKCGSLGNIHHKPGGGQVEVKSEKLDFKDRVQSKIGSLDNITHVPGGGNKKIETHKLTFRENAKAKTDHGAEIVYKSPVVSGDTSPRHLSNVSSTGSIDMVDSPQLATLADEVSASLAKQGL
# [4] = target: T4, Tau 441 P301S (human, UniProt P10636-8 1-441, P301S); assay: as above
# T4 construct: also called Tau P301S; FTLD-linked disease mutant of tau; source: bought: Signal Chem (T08-56GN)
# T4 sequence (P10636 other isoform, or with tags, fused parts or gaps P301S | P301S | P301S P301S): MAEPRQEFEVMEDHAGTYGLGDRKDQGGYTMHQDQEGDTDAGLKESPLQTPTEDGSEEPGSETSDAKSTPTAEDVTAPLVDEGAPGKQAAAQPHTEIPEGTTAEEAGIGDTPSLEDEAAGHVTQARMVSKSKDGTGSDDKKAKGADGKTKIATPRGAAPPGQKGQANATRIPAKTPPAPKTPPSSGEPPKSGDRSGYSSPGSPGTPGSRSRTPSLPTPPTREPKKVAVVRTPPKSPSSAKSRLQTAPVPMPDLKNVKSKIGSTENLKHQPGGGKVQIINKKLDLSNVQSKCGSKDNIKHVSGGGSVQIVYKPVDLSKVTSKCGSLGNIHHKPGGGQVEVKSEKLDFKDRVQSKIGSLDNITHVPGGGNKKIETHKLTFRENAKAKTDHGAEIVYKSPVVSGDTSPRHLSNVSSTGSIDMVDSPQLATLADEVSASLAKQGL
# [5] = target: T5, Tau 410 P216A (human, UniProt P10636-5 1-410, P216A); assay: as above
# T5 construct: human tau, splice form Tau 410, 410 residues, with P216A; numbers count on: Tau 410; also called Tau P216A; source: E. coli Rosetta(DE3)pLysS, purified (Ni-NTA agarose); not shown: His-tag, N-terminal, kept
# T5 sequence (P10636 other isoform, or with tags, fused parts or gaps P216A | P216A | P216A P216A): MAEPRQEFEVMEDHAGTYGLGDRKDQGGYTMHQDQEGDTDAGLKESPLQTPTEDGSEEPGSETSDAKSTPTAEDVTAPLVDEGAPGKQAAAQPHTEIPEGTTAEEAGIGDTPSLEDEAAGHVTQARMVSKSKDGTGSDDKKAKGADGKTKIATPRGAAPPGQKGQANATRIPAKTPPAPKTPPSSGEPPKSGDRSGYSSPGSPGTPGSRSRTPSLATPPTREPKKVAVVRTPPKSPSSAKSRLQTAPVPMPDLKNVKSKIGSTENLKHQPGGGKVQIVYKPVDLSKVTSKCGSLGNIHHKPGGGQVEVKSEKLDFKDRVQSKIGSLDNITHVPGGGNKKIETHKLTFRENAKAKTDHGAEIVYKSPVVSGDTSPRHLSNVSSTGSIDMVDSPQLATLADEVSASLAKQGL
# [6] = target: T6, Tau 410 P179A (human, UniProt P10636-5 1-410, P179A); assay: as above
# T6 construct: human tau, splice form Tau 410, 410 residues, with P179A; numbers count on: Tau 410; also called Tau P179A; source: E. coli Rosetta(DE3)pLysS, purified (Ni-NTA agarose); not shown: His-tag, N-terminal, kept
# T6 sequence (P10636 other isoform, or with tags, fused parts or gaps P179A | P179A | P179A P179A): as the sequence (P10636 other isoform, or with tags, fused parts or gaps P216A | P216A | P216A P216A) above, with P179A, A216P counted along it
# [7] = target: B1; assay: NMR titration; 1H-15N HSQC of labelled tau fragments without and with PQBP1(1–94), molar ratio Tau:PQBP1(1–94) 1:5; 0.1–0.5 mM tau, 20 mM sodium phosphate pH 7.0, 20 mM NaCl, 1 mM dithiothreitol, 283 K
binding result [1],binding result [2],binding result [3],binding result [4],binding result [5],binding result [6],binding result [7],Binder
binds,binds,binds,,,,,B1
,binds,binds,binds,binds,binds,,"human PQBP1 full-length form (PQBP1-FL) (natural protein, UniProt O60828 1-265, looked up, also called full-length PQBP1) MPLPVALQTRLAKRGILKHLEPEPEEEIIAEDYDDDPVDYEATRLEGLPPSWYKVFDPSCGLPYYWNADTDLVSWLSPHDPNSVVTKSAKKLRSSNADAEEKLDRSHDKSDRGHDKSDRSHEKLDRGHDKSDRGHDKSDRDRERGYDKVDRERERDRERDRDRGYDKADREEGKERRHHRREELAPYPKSKKAVSRKDEELDPMDPSSYSDAPRGTWSTGLPKRNEAKTGADTTAAGPLFQQRPYPSPGAVLRANAEASRTKQQD"
,,,,,,binds,"SSPGSPGTPGSRSRTPSLPTPPTREPKKVAVVRTPPKSPSSAKSRL (domain or fragment, human, UniProt P10636-5 198-243, looked up, human tau, splice form Tau 410, residues 198-243; numbers count on: Tau 410; pOPHLT-s has a TEV protease cleavage site after the His-tag and lipoyl domain; Isotope-labelled (15N); also called proline-rich region) [Tau(198–243) of Tau 410]"
,,,,,,binds,"IATPRGAAPPGQKGQANATRIPAKTPPAPKTPPSSGEPPKSGDRSGY (domain or fragment, human, UniProt P10636-5 151-197, looked up, numbers count on: Tau 410; pOPHLT-s has a TEV protease cleavage site after the His-tag and lipoyl domain; Isotope-labelled (15N); also called proline-rich region) [Tau(151–197) of Tau 410]"
